The labels stand for the following.
B1: ILT70083.3 (antibody, V domains shown)
VH: EVQLLESGGGLVQPGGSLRLSCAASGFTFSSYAMSWVRQAPGKGLEWVSAISGSGGSTYYADSVKGWFTISRDNSKNTLYLQMNSLRAEDTAVYYCARRTYYYDSDGHSDVFDIWGRGTLVTVSS
VL: QSVVTQPPSVSAAPGQKVTISCSGSASNIGSNFVSWYQQLPGTAPKLLIYDNDKRDLGIPDRFSGSKSGTSATLGITGLQTGDEADYYCGTWDTSLTVGVFGGGTKLTVL
notes: Engineered (germlined) ILT70083 IgG1 variant; also called ILT70083 variant
B2: ILT70083.6 (antibody, V domains shown)
VH: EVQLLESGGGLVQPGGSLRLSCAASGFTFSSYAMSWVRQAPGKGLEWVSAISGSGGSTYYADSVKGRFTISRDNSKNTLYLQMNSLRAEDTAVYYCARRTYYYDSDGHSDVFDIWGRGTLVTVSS
VL: B1 VL with G65A, K67I, G69S
notes: as for B1
B3: ILT70083.8 (antibody, V domains shown)
VH: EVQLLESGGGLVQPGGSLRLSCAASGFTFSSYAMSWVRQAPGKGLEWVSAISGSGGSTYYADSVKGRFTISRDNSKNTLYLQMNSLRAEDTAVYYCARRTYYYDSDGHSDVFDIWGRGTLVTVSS
VL: B1 VL
notes: as for B1
B4: ILT70083.9 (antibody, V domains shown)
VH: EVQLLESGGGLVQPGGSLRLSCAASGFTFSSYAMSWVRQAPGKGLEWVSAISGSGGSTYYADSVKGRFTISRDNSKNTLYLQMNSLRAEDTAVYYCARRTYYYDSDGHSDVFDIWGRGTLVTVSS
VL: B1 VL with V4L
notes: as for B1
B5: ILT70083.4 (antibody, V domains shown)
VH: B1 VH
VL: B1 VL with V4L
notes: as for B1
B6: ILT70080.2 (antibody, V domains shown)
VH: QVQLVQSGAEVKKPGSSVKVSCKASGDSFRNYAVSWVRQAPGQGLEWMGAMMPSFGTREHSQQFQGRVTLSADESTSTAYMELSSLRSEDTAVYYCAGSRDYNAYHFWTGPPDFWGRGTLVTVSS
VL: SYVLTQPPSVSVAPGKTARITCGGDSVGSTSVHWYQQKPGQAPVMVMFYNSDRPSGIPERFSGSISGNTATLTISRVEAGDEADYYCQVWDTSSDHPEFGGGTKLTVL
notes: Engineered (germlined) ILT70080 variant tested as IgG1; also called ILT70080 variant
B7: ILT70080.4 (antibody, V domains shown)
VH: B6 VH with K13A, S16T
VL: B6 VL with V3E, R19K, T21S
notes: as for B6
B8: ILT70080.5 (antibody, V domains shown)
VH: B6 VH with S71T
VL: B6 VL with I65N
notes: as for B6
B9: ILT70080.6 (antibody, V domains shown)
VH: B6 VH with S71T
VL: B6 VL with M45L, M47I, F48Y, I65N
notes: as for B6
B10: ILT70080.7 (antibody, V domains shown)
VH: B6 VH with S71T
VL: B6 VL with M45L, I65N
notes: as for B6
B11: ILT70080.1 (antibody, V domains shown)
VH: B6 VH with S71T
VL: B6 VL
notes: as for B6
B12: ILT70080.3 (antibody, V domains shown)
VH: B6 VH with K13A, S16T
VL: B6 VL
notes: as for B6
B13: ILT70052 (antibody, V domains shown)
VH: EVQLVESGGGLVKPGGSLRLSCEASGFTFTDYYMNWIRQAPGKGLEWISYISPGGTTVYYADSVKGRFTISRDNAKNSLYLQMNSLRVEDTAVYYCARDISGYGDWFDPWGKGTLVTVSS
VL: QSVVTQPPSASGTPGQRVTISCSGSSSNIGSNTVNWYQLLPATAPRILIYNNNQRPSGVPDRFAGSKSGTSASLAISGLQSEDEADYYCGAWDDSLNSPVFGGGTKLTVL
B14: ILT70100 (antibody, V domains shown)
VH: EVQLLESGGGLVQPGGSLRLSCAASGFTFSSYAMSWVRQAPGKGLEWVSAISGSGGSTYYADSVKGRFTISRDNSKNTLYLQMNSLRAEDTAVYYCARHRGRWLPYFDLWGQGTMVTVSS
VL: DIQLTQSPSSLSASVGERVTITCQASQDIRSYLNWYQQKPGKAPKLLIYDVSNLETGVPSRFSGSGSGTEYTFSISSLQPEDFATYYCQQYDKAPLTFGGGTKVEIK
B15: afucosylated ILT70080.6 (antibody, V domains shown)
VH: B6 VH with S71T
VL: B6 VL with M45L, M47I, F48Y, I65N
modifications: afucosylated (no core fucose on the Fc N-glycan)
B16: afucosylated IgG1 ILT70137 (antibody, V domains shown)
VH: QVQLQQSGAEVKKPGASVKVSCKASGYTFTSYGISWVRQAPGQGLEWMGWISAYNGNTNYAQKLQGRVTMTTDTSTSTAYMELRSLRSDDTAVYYCARNGLWGWDSDAFDIWGRGTLVTVSS
VL: QSALTQPASVSGSPGQSITISCTGTSSDVGGYNYVSWYQQHPGKAPKLMIYDVSNRPSGVSNRFSGSKSGNTASLTISGLQAEDEADYYCSSYTSSSTVVFGGGTKVTVL
modifications: afucosylated (made as in Example 7: lacks the α-1,6 fucose moiety on the N-glycan at Asn-297 of the heavy chain)
B17: ILT70083.1 (antibody, V domains shown)
VH: B1 VH
VL: B1 VL with G65A, K67I, G69S
B18: ILT70083.5 (antibody, V domains shown)
VH: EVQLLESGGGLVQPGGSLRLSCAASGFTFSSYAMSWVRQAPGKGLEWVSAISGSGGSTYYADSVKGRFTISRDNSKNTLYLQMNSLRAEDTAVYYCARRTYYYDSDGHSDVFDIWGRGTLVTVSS
VL: B1 VL with T43R, G65A, K67I, G69S, T73A, G75A, G82E
B19: ILT70083.7 (antibody, V domains shown)
VH: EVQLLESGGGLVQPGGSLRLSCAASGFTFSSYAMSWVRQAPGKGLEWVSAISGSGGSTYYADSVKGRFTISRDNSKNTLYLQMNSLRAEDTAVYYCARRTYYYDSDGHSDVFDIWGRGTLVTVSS
VL: B1 VL with V4L, G65A, K67I, G69S
B20: ILT70083.2 (antibody, V domains shown)
VH: B1 VH
VL: B1 VL with V4L, G65A, K67I, G69S

Where a chain is given by its changes, count along the chain named. “And” between values parts separate entries of the source, which are not always exact repeats. Equal entries are not always repeated. Where only a bound is given, the exact number is not on record here.

The first test deals with T1, cynomolgus ILT7 expressed on transfected cells (cynomolgus, UniProt P59901 24-499 (human entry)).
T1 construct: also called cyno ILT7; CynoILT7 CT-125 cells
T1 sequence (P59901 other isoform, or with tags, fused parts or gaps limits assumed): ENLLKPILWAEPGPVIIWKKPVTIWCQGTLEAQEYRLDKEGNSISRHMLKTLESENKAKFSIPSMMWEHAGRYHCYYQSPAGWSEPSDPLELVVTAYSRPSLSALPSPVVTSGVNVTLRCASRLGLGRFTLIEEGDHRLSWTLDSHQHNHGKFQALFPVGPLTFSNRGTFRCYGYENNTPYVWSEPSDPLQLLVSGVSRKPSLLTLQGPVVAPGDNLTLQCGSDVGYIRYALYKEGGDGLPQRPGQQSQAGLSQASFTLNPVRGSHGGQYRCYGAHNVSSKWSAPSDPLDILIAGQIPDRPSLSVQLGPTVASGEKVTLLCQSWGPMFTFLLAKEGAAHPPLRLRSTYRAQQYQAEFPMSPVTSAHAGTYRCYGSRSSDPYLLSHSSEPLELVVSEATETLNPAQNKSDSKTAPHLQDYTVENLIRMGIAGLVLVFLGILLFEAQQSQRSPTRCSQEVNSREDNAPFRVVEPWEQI
The test can be described thus: flow cytometry on CT-125 cells expressing cynomolgus ILT7. As for the experimental part:
Binding of anti-ILT7 variants and isotype controls on human and cynomolgus ILT7 was assessed by flow cytometry analysis using CT-550 and cynoILT7 CT-125 cells respectively. CT-125 cells were used as control. Cells were resuspended in Blocking Buffer (PBS supplemented with 10% FBS) at a concentration of 5 million cells per mL and transferred into a round-bottom 96-well plates (BD Falcon™ Clear Microtest Plate, BD Biosciences) at 100 μL per well. Anti-ILT7 variants and control antibodies were added onto the cells for 30 min at 4° C. on a plate shaker. Cells were washed three times with PBS and resuspended in Blocking Buffer (100 μL/well). Human IgG binding on cell surface was detected using a secondary anti-human IgG antibody conjugated to DyLight 649 (1 in 1000 dilution). Cells were incubated in the dark for 30 min at 4° C. on a plate shaker. Cells were washed three times with PBS and surface fluorescence was acquired using LSRII Flow Cytometry System and FACSDiva Software (both from BD Biosciences).
The resultant IgG1s were tested to confirm that the sequence changes incorporated into ILT70080 and ILT70083 and had not adversely impacted the binding of the parent antibody to cells expressing human ILT7 (CT-550 cells) or cynomolgus ILT7 (CT-125 cells). The variants were screened for binding by flow cytometry. […] However, five ILT70083 variants (ILT70083.4, ILT70083.9, ILT70083.3, ILT70083.6, and ILT70083.8) had improved binding capacity compared to the parental antibody for cynomolgus ILT7.
(In general: In flow cytometry, cells or beads pass a laser one at a time.)
Consider B1, for which the binding result was “binds”.
Same read-out and setting: as for B2, the entry is “binds”; as for B3, “binds”; as for B4, “binds”.
On to B5, for which the binding result was “binds”.
On the same count and under the same terms, with B6 the entry was “binds”.
Same read-out and setting: with B7 the entry was “binds”; with B8, “binds”; with B9, “binds”.
In the case of B10, the binding result is listed as “binds”.
As for B11, the binding result is “binds”.
On to B12, for which the binding result was “binds”.

In a further test the target is T2, human ILT7 expressed on transfected cells (human, UniProt P59901 24-499).
T2 construct: whole, on cells; also called LILRA4; LIRA4
T2 sequence (P59901 24-499): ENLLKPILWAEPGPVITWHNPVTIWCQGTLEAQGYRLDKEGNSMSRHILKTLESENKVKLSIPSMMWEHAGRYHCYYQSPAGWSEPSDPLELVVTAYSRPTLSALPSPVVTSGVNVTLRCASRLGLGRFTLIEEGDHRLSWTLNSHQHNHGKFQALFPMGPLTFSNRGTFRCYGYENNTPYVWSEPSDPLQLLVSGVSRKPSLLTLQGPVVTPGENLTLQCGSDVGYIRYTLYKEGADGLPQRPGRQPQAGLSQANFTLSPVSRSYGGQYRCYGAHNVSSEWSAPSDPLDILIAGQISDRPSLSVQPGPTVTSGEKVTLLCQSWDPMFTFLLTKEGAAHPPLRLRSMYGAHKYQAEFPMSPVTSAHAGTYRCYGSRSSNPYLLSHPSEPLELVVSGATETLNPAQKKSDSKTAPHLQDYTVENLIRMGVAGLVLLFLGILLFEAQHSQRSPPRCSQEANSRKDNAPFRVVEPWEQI
The test can be described thus: FMAT cell binding, CHO cells expressing human ILT7. From the text:
This homogeneous assay assessed the binding of crude scFv supernatant samples or purified IgG to Chinese Hamster Ovary (CHO) cells expressing either human or cynomolgus ILT7 in a 384-well (Costar 3655) format. ScFv or Ab binding to cells was detected using a mouse anti-His/goat anti-mouse Alexafluor®-647 labelled antibody (Molecular Probes A21236) mix, or goat anti-human Alexafluor®-647 labelled antibody (Molecular Probes A21445) respectively. Plates were read on the Applied Biosystems Cellular Detection system 8200 reader. The Helium neon excitation laser was focused within 100 μm depth of the bottom of the well, scanning an area 1 mm². The cells settled at the bottom of the well, and upon laser excitation at 633 nm, those beads with fluorophore bound (where the local concentration of fluorophore is relatively high compared to unbound fluorophore) emitted a signal at 650-685 nm that was measured using photomultiplier tube-1 (PMT1). […] The presence of scFv or IgG samples binding to the cells at the bottom of the well caused an increase in Alexafluor-labeled detection antibody within the excitation depth. This was measured as an increase in fluorescence.
Species cross-reactivity of anti-ILT7 antibodies was determined using FMAT binding assay. The detailed assay method is provided in the Materials and Methods section. […]
Regarding B13, the binding result is on record as “binds”.
Regarding B14, the binding result is recorded as “binds”.

For another test, the target named is T1, cynomolgus ILT7 expressed on …. Put plainly: cell-based or functional assay.
Regarding B15, the “ADCC EC50” value stood at 0.44 µM.
On the same count and under the same terms, with B16 the figure was 1.89 µM.

Another test addresses T2, human ILT7 expressed on transfected …. The test can be described thus: cell-based or functional assay.
On to B17, for which the “ADCC potency EC50” value is more than 89 µM.
Regarding B1, the “ADCC potency EC50” value was more than 89 µM.
For B18, the “ADCC potency EC50” value is more than 89 µM.
Same read-out and setting: as for B19, the figure is more than 89 µM; as for B2, more than 89 µM.
Still for that read-out and setting: with B3 the figure was more than 89 µM.
Consider B4, for which the “ADCC potency EC50” value is more than 89 µM.
The same measure, in the same setting: with B20 the figure was more than 89 µM; with B5, more than 89 µM.
With B6, the “ADCC potency EC50” value is less than 14.1 µM.
As for B7, the “ADCC potency EC50” value was < 14.1 µM and 11.9 µM.
On to B8, for which the “ADCC potency EC50” value is < 14.1 µM and 8.6 µM.
With B9, the “ADCC potency EC50” value is < 14.1 µM and 6.9 µM.
Still for that read-out and setting: with B10 the figure was < 14.1 µM and 7.8 µM.
Regarding B15, the “ADCC EC50” value was 1.12 µM.
In the case of B11, the “ADCC potency EC50” value was < 14.1 µM and 8 µM and 10 µM.
For the molecule B12, the “ADCC potency EC50” value is < 14.1 µM and 11 µM.
Turning to B16, the “ADCC EC50” value came to 4.19 µM.

The record behind these values is patent publication US20230250167A1 (published 2023).
